# From the DeepSol protein solubility set
# Assay: soluble on expression in E. coli; label from the status in PepcDB or PDB records
row,Sequence,soluble on expression in E. coli
1,MGSDKIHHHHHHMGSLNMPPLDFDAQKTPHIADLRSPQCRNCDIVREIAFCADLSPDEVKRLATVRCHAALPASFTVFREGDEVDHVYSISAGAVKLYKLMPDGRRQIIGFLFSGDLFGLGIDGGYCYTAETITPTHLCRFTHRKLDSLIAEIPRLERRMFTMAVKDLVSAQDQMLLLGRKTAREKVATFLLRLSRRSIQMGLPPSPVALPMSRADIADYLGLTIETVSRTFTQLKRDGIIGLPASGHCIVNDWEALRELAEGG,not soluble
2,ALVGDNLEQIDARLVNSLPLFKDQEGRDVNVRVGRYGPYLERQVGVSEDGEPEYQRANLSDSTTPDELTLELAEKLFATPQSGRELGRNPKNNRMIVAKEGRFGPYVTELVNDDERTEVEAKAEEIVAAEREAEDLQRAAEGKRAKNWGTKTAAAQKEKRIAQIIEETLKPSTASLFKTMEPSSVTLDEALQLLALPREVGVDPSDNEVITAQNGRYGPYLKKGSDSRTLASEDQIFSITLDEARRIYAEPKRRGRGATSQSVIKQLGDNDVSGKPMSVRDGRFGPYVTDGTTNASLRRGDDPTQLTEARANELLSERRAKEAADGGSSKKATKKASKKTTKRVAKAGARKKK,not soluble
3,GKDFTYNVDANVSFARNKILYMDEVPKQFSYMNQTGGSTGRQTGVYNYIRLYQYSDFITGADGELTLKPELPQPYQKVYPGDAMYADLNGDHIVDGNDKSVAGYATRPEYVFGMNMGFDWKGFNFTMQWVGSKNVNRMYDIEYRIPYTNAGKRGLLTYFYDGCWTPENQLGATYPRPSEESESWNSEPSTLWLVDASYLRLKSLSFGYTITGKKFLKKLGLSSLGLNFSGYNLLTFSPLKYLDPESDPNRFGDYPLIKVYSFGLNLNF,not soluble
4,MDDREGSFVAVRRISQGLERGSVYNSSSAEAVPGSAAWLGRGLSCVCAQRRDSDANSTFDLTPAQEECLQSLQNRIDVAYDSTIPLHQEALRELWKLSFPEEELHGLISEQWKEMGWQGKDPSTDFRGGGFISLENLLYFARNFQKSFQDLLRKQVGDRSVWEYPFAVAGINLTFMLIQMLDLEAVKPRTIVGATFLKFLSENESAFDLLYCIAFKLMDQQWLSMRASYMEFNTVMKSTRRQLERELMLEDIMHLEDLPSYALLNQ,not soluble
5,MLLPTPEDLKKRRNELGLTQSDLAKRAGVSQPLIARIESGDVDPRLSTVRKILDAFEEAEKERQILIRDLMHSPVLHVSPEDSVEEVVNLMHVHGFSQIPVLDRGIPVGSVSEDMIVRLMGESKKKPISQLKVSGIMGESFPTVSPGISISVVSHILEGNPAVLVVEKGTVVGVVTKHDVMKLLQGQ,not soluble
6,MSQNASVGIVMPQKIPFEMPLVLENGKTLPRFDLMIETYGELNAEKNNAVLICHALSGNHHVAGRHSAEDKYTGWWDNMVGPGKPIDTERFFVVGLNNLGGCDGSSGPLSINPETGREYGADFPVVTVKDWVKSQAALADYLGIEQWAAIVGGSLGGMQALQWTISYPERVRHALVIASAPKLSTQNIAFNDVARQAILTDPDFNEGHYRSHNTVPARGLRIARMMGHITYLAEDGLGKKFGRDLRSNGYQYGFGVEFEVESYLRYQGDKFVGRFDANTYLLMTKALDYFDPAADFGDSLTRALQNVKAKFFVASFSTDWRFAPERSHELVKALIAAQKSVQYIEVKSAHGHDAFLMEDEAYMRAVAAYMNNVYKECQQ,not soluble
7,MQQIFFKDPILGEVLFDQQTKWMYELVETEAFRRLRNIKQLGINFHFYPGGVHTRYSHSLGVYELLRRILNTPAFAPIDENKKQTVLVAGLLHDIGHAPHSHAFEIYFAKAPNFKKELFIHEEVTTLFVNSEPIKSILKANQIDPKLVAALIDENKELKPSNYWMRQLISSDLDADRMDYLLRDSYFTGTSHSLIDYQTIIKEMDCVKVKGIYEIFFKDKCLPLIENFLITRHHMYQSIYSDGRSISTELNLWFVFQRIKDLVDKNQFDFNGYKTLEQVCLPLLKNEHFDKKMLPAFVKLDDYVFQSFFVNLYQTTKDKILKKLLDSYLNSLKFEIKFYETKEQRDLDFEKQASKYKDAKYFITKFNNQFKGFYEGWSSHKNELKIKTMQNKHTNLSEISMLVKRSNELFFENALYKWANVFYRL,soluble
8,GPGSMAIEVATSTRLQYARMLRSMLEMDRTPLDMMILGFQKIAARSETRQTRQARPVTEEEMNEYIRSRTDWKERVVVRLAWMTASRWSEIAALNPNNFKLKPDGALILDWPVVPKTARADPHRAFRFVRIRGQDAFDIIKLCRTLQENEKLTNITNAQVERALAPWDATAHSIERGALRHAAQIVEKYNLDPHVISQLAKHVNPFDLPQNTV,soluble
9,MSLSMEFDAVIIGGGVSGCATFYTLSEYSSLKRVAIVEKCSKLAQISSSAKANSQTIHDGSIETNYTPEKAKKVRLSAYKTRQYALNKGLQNEVIFETQKMAIGVGDEECEFMKKRYESFKEIFVGLEEFDKQKIKELEPNVILGANGIDRHENIIGHGYRKDWSTMNFAKLSENFVEEALKLKPNNQVFLNFKVKKIEKRNDTYAVISEDAEEVYAKFVLVNAGSYALPLAQSMGYGLDLGCLPVAGSFYFVPDLLRGKVYTVQNPKLPFAAVHGDPDAVIKGKTRIGPTALTMPKLERNKCWLKGISLELLKMDLNKDVFKIAFDLMSDKEIRNYVFKNMVFELPIIGKRKFLKDAQKIIPSLSLEDLEYAHGFGEVRPQVLDRTKRKLELGEKKICEGHHHHHH,not soluble
10,MSLEIHFEKVTSDNRKAVENLQVFAEQQAFIESMAENLKESDQFPEWESAGIYDGNQLIGYAMYGRWQDGRVWLDRFLIDQRFQGQGYGKAACRLLMLKLIEKYQTNKLYLSVYDTNSSAIRLYQQLGFVFNGELDTNGERVMEWTHQNKEGGSHHHHHH,soluble
11,MQFYQPPAQQHLARSTPPPNFAQPYGMGMRPHEEETRQIMNLDSQQTHSSSPTSSWNQPYGQMSNPYQQRGPSLYAPPGPPVMHQNGPPGVVPTSNPYYQPPVPPQHHHMQPQAPMMSPGMHGQQQQQPYYNTQSPLTGTPPSMSYGTPQIPAPPPTSNGSAPMFNFSKPRNSNEGSLTNGGGGAAHRRKKHNDLSSPRYSSNSNEDVDGSVFPDMADFPLLDVVQSKAKKDAGRKPCRPHLCEQSRMLISRVCHFHREFIKRLPARHPLVNSPFSKPDQWTSQIMGISLATVRKCIDMAVDEEVFTRCTDKNLVNLTPSERAEREELLSKLSTVFEDEKSLGAGTAGMTIAEYSPRRSYSNTLLRQSTDDKSSTSSYNANGGEYGGSTETTLLNLDDHSNSSKDYGMTPTTPAAPVASSVTSDLGGGGGQVFEEIGAIGGGMSTESSLDDKSAVKIPKRGRPCKAPGTTATNKSTKRKESQDGGQEVGGPVEDKDDHEKKTEDEDETNEETEKIEVQQADQAEREDDAASSEGTNRSETATPELATDTTAVAKKTRSAAARRKNTKTVDDEFAGATKKKRGSVTAATAGIGGDDENSDHKMVTRARSRQP,not soluble
12,MSLATTHLDVCAVVPAAGFGRRMQTECPKQYLSIGNQTILEHSVHALLAHPRVKRVVIAISPGDSRFAQLPLANHPQITVVDGGDERADSVLAGLKAAGDAQWVLVHDAARPCLHQDDLARLLALSETSRTGGILAAPVRDTMKRAEPGKNAIAHTVDRNGLWHALTPQFFPRELLHDCLTRALNEGATITDEASALEYCGFHPQLVEGRADNIKVTRPEDLALAEFYLTRTIHQENT,soluble
13,MSLSIFSHFQERFEATRQEEYSLQEYLDLCKQDKTAYASAAERLLMAIGEPELLDTSVDSRLSRIFSNKVIRRYPAFADFHGMEECIDQIVAFFRHAAQGLEEKKQILYLLGPVGGGKSSLAEKLKQLMEKVPFYAIKGSPVFESPLGLFNPDEDGAILEEDYGIPRRYLRSIMSPWATKRLNEFGGDISQFRVVKLYPSILNQIAIAKTEPGDENNQDISALVGKVDIRKLEEYPQNDADAYSYSGALCRANQGLMEFVEMFKAPIKVLHPLLTATQEGNYNSTEGLGALPYSGIILAHSNESEWHSFRNNKNNEAFIDRIYIVKVPYCLRVADEIKIYDKLLVNSSLAHAHCAPDTLKMLSQFSVLSRLKEPENSNIYSKMRVYDGENLKDTDPKAKSIQEYRDSAGVDEGMAGLSTRFAFKILSKVFNFDPHEVAANPVHLLYVLEQQIEQEQFQPETRERYLRFIKEYLAPRYVEFIGKEIQTAYLESYSEYGQNIFDRYVLYADFWIQDQEYRDPETGEILNRAALNEELEKIEKPAGISNEGHHHHHH,not soluble
14,AHHHHHHGSKLKFWREVAIDIISDFETTIMPFFGNPDGGKLVKISPSGDETKLVDKLAEDLILSRITELGVNVVSEEVGVIDNESEYTVIVDPLDGSYNFIAGIPFFALSLAVFKKDKPIYAIIYEPMTERFFEGIPGEGAFLNGKRIKVRKTPDEKPSISFYSRGKGHEIVKHVKRTRTLGAIALELAYLAMGALDGVVDVRKYVRPTDIAAGTIIAKEAGALIKDSAGKDIDISFNATDRLDVIAVNSEELLKTILSLLE,soluble
15,MLGAIIGDLVAWTWERDQSLFYQRLIAPKANISEVGLAVLGVTEPMLRGSSEVEWESLYLHIREIIQRDRITDISPDFNDWTEAGHQAVIPKEVKSVMHLAVSIVGGWCDAPLETTLAYSRRFHGGKEEYYLTQIAEIIYRLRQGATKQEAMEDIHYIKNWKPQGKVSLLGYAHHAWQCFLQSWDFTSALHNAMRCSYGDKHLLGALTGAIAEAMYSCEYGFIKEKYGKGSDTQFMLSLPKELSGLYRVELGLIESNKELLRTFFPKNRALTNVEVWQWFDLPNIVAHKPLSEREYQRIRLSHDTGWDARYGIYWDDGWYYVYCSGFLLNRFRVEEMQDHTYRITRIQYCTQHEEGKAYNALIKALSLDGLDMSAYSQYKD,not soluble
16,MLSLTAHLVLISTIIVKCSAFSKKPSERAKPAAVKKAVEDKQPVKVTAFEQASLNEDKAEAMSNIEPSPKISNSTVPTAPTPKKEKKVVATTKKTERSVAQGPPLVSEHIKDEKKMPSVHKPIRKGSIYANELLTEKPLTDTEPELHPDNHVVKAKSPKPVARTPTARHRNALKPGKINDKSDDTLHDAPSIQKVGGPSYEDAASVNEKEKDVNPK,not soluble
17,MSEELEYLKVLLYASQVEAQKLRKQKEEKDALLKTFQVKLEVEALGNLPAQRNLSEDISKREIQSLKKQVTVLKEEIGLEGSKLAIANAVQEQLKTDLADEKEKCRFTREVTKLYQMNIQLDQPSRDQVADYLQFEIRTVKEVLRQKEEELEKLMAENKYNYFENCAEKCRIQEETSAARREADLLRDEMKTLVKNMNAKSEELLGQLRDSTEKCEEMEIDCNIQLLELQKRHELLNYYASLG,not soluble
18,MWGQTNMADKKSPLIAVSVGEASGDLLGAHLIRAIRKRCPQARFTGIGGELMKAEGFESLYDQERLAVRGFVEVVRRLPEILRIRRGLVRDLLSLKPDVFVGIDAPDFNLGVAEKLKRSGIPTVHYVSPSVWAWRRERVGKIVHQVNRVLCLFPMEPQLYLDAGGRAEFVGHPMAQLMPLEDDRETARQTLGVDAGIPVFALLPGSRVSEIDYMAPVFFQTALLLLERYPAARFLLPAATEATKRRLAEVLQRPEFAGLPLTVIDRQSETVCRAADAVLVTSGTATLEVALCKRPMVISYKISPLTYAYVKRKIKVPHVGLPNILLGKEAVPELLQSEAKPEKLAAALADWYEHPDKVAALQQDFRALHLLLKKDTADLAARAVLEEAGC,not soluble
19,RLIVGKHHWKIEKQPEWYVKAVRKTIAALPSGYAEAADWLDVTENALFNRLRADGDQIFPLGWAMVLQRAGGTHFIADAVAQSANGVFVSLPDVEDVDNADINQRLLEVIEQIGSYSKQIRSAIEDGVVEPHEKTAINDELYLSISKLQEHAALVYKIFCISESNDARECAAPGVVASIASGCGETNA,soluble
20,MEPSTIVKLDVGGKIFKTTIFTLCKHDSMLKTMFCTDVPVTKNEEGSVFIDRDSKHFRLILNFLRDGQIALPDSDREVREVLAEASYFLLDPLIELCGERLEQSLNPYYHLVSTVLEARKIIFATEKPIVVLRLPVYIATSGNQSYYFSETKFRELSEEYHKHVAFILITEPEFNEDCSWSFFLRAKKITARIKGPMDCNLVEECMPKTVERRREKKTWH,not soluble
